Changes are numbered by the printed parent chain. “Also recorded” adds a separate entry of the source.
Columns and labels:
Type in all cases: cell-based
[1] = tested on: SHH-induced GLI transcriptional activity; experiment: NIH3T3-GLI reporter assay, humanized SMO antibodies; details: NIH3T3-GLI cells, Sonic hedgehog peptide 15 h, 10 and 20 μg/ml antibody 6 h
Description: GLI Repoter-NIH3T3 cell line was purchased from BPS Bioscience (CA, USA).
After NIH3T3-GLI cells having GLI transcriptional activity were plated in a 96-well plate at a density of 1×10^4 cells/cm^2, 2% BCS was treated with Sonic hedgehog peptide. Following 15 h, the cells were treated with different concentrations (10 and 20 μg/ml) of each of humanized antibody Nos. 5 (Production Example 6), 7 (Production Example 7), 15 (Production Example 8), 16 (Production Example 9), and 17 (Production Example 10) for 6 h. GLI1 Reporter activity (%) was measured through luminescence using a Reporter assay kit (Promega, WI, USA). The above procedure was repeated except that the SMO small-molecule inhibitor vismodegib or erismodegib was used as a positive control instead of the inventive SMO antibody.

GLI1 = experiment: Western blotting of HCT116 cell line treated with humanized SMO antibodies; details: HCT116, 10 and 20 μg/ml, serum free media
Description: (§1) HCT116 cell line was purchased from the Korean Cell Line Bank. 24 h after cells were plated in a […] at a density of 5×10^5 cells/cm^2, they were treated with different concentrations (10 and 20 μg/ml) of each of humanized SMO antibody Nos. 5, 7, 15, 16, and 17 in serum free media.
(§2) Cells were disrupted by a combination of mechanical homogenization and sonication in a lysis buffer (7 M urea, 2 M thiourea, 4% CHAPS, 40 mM Tris, 100 mM DTT) supplemented with protease, followed by centrifugation at 15,000 rpm and 4° C. for 20 min. Proteins in the supernatant were quantified with NanoDrop by bicinchoninic acid (BCA) assay.
(§3) 30 μg of the proteins isolated from the collected tissues were subjected to electrophoresis, transferred to a PVDF membrane, labeled with anti-GLI1 antibody (cell signaling, MA, USA), anti-SMO antibody (Santa Cruz, CA, USA), and anti β-actin antibody as primary antibodies and an HRP-conjugated anti-rabbit antibody as a secondary antibody, and detected by chemiluminescence staining. The expression levels of SMO protein were measured by the enhanced chemiluminescence (ECL) method.

SMO = experiment: as above; details: HCT116, 10 and 20 μg/ml, serum free media
Description: as §1, §2, §3

HCT116 cell line = experiment: Transwell migration assay; details: HCT116, 10 μg/ml, 48 h
Description: After HCT116 cell line was plated in a transwell, each of humanized SMO antibody Nos. 7, 15, 16, and 17 was added at a concentration of 10 μg/ml. Following 48 h, cell motility was measured using a Diff-Quik kit.

B1: humanized SMO antibody No. 7: humanized SMO antibody, VH SEQ ID NO: 23 and VL SEQ ID NO: 28 (antibody, V domains shown)
VH: QVQLVQSGAEVKKPGASVKVSCKASGYTFTEYTMHWVRQAPGQRLEWMGGINPNTGDTRYNQKFKGRVTITVDKSASTAYMELSSLRSEDTAVYYCARDYYGSPFVYWGQGTLVTVSS
VL: DIVMTQSPLSLPVTPGEPASISCRSSQSIVHSSGYTFLDWYLQKPGQSPQLLIYKVSNRFSGVPDRFSGSGSGTDFTLKISRVEAEDVGVYYCFQGSHVPLTFGGGTKVEIK
modifications: huSM01-21-07 VH; huSM01-21-07 VL
transcriptional activity of GLI (GLI1 Reporter activity) [1]: significantly inhibited the transcriptional activity of GLI; also recorded: effectively inhibit the SHH-induced GLI transcriptional activity
expression level of GLI1 protein (GLI1): reduce the expression levels
expression level of SMO protein (SMO): reduce the expression levels
cell motility (HCT116 cell line): reduction in cell motility

B2: humanized SMO antibody No. 15: humanized SMO antibody, VH SEQ ID NO: 24 and VL SEQ ID NO: 29 (antibody, V domains shown)
VH: B1 VH
VL: DIQMTQSPSSLSASVGDRVTITCRSSQSIVHSSGYTFLDWYQQKPGKAPKLLIYKVSNRFSGVPSRFSGSGSGTDFTLTISSLQPEDFATYYCFQGSHVPLTFGQGTKVEIK
modifications: huSM01-21-15 VH; huSM01-21-15 VL
transcriptional activity of GLI (GLI1 Reporter activity) [1]: significantly inhibited the transcriptional activity of GLI; also recorded: effectively inhibit the SHH-induced GLI transcriptional activity
expression level of GLI1 protein (GLI1): reduce the expression levels
expression level of SMO protein (SMO): reduce the expression levels
cell motility (HCT116 cell line): reduction in cell motility

B3: humanized SMO antibody No. 16: humanized SMO antibody, VH SEQ ID NO: 25 and VL SEQ ID NO: 29 (antibody, V domains shown)
VH: B1 VH with R44G, I70M, A76T, A79V
VL: B2 VL
modifications: huSM01-21-16 VH; huSM01-21-15 VL
transcriptional activity of GLI (GLI1 Reporter activity) [1]: significantly inhibited the transcriptional activity of GLI; also recorded: effectively inhibit the SHH-induced GLI transcriptional activity
expression level of GLI1 protein (GLI1): reduce the expression levels
expression level of SMO protein (SMO): reduce the expression levels
cell motility (HCT116 cell line): reduction in cell motility; also recorded: highest activities to reduce cell mobility
cell motility compared to treatment with vismodegib or erismodegib (positive control) (HCT116 cell line): significantly inhibited cell motility

B4: humanized SMO antibody No. 17: humanized SMO antibody, VH SEQ ID NO: 26 and VL SEQ ID NO: 29 (antibody, V domains shown)
VH: B1 VH with Q1E, S17T, V20I, A24V, R38Q, Q43K, R44G, A76T, S77D
VL: B2 VL
modifications: huSM01-21-17 VH; huSM01-21-15 VL
transcriptional activity of GLI (GLI1 Reporter activity) [1]: significantly inhibited the transcriptional activity of GLI; also recorded: effectively inhibit the SHH-induced GLI transcriptional activity
expression level of GLI1 protein (GLI1): reduce the expression levels
expression level of SMO protein (SMO): reduce the expression levels
cell motility (HCT116 cell line): reduction in cell motility; also recorded: highest activities to reduce cell mobility
cell motility compared to treatment with vismodegib or erismodegib (positive control) (HCT116 cell line): significantly inhibited cell motility
